Results published in patent US20260115305A1, “LINKERS, CONJUGATES AND APPLICATIONS THEREOF” (GENEQUANTUM HEALTHCARE (SUZHOU) CO., LTD., priority 2022, published 2026).

B1: ADC-5 (antibody, human IgG1, kappa, V domains shown)
VH: QVQLQQSGSELKKPGASVKVSCKASGYTFTNYGMNWVKQAPGQGLKWMGWINTYTGEPTYTDDFKGRFAFSLDTSVSTAYLQISSLKADDTAVYFCARGGFGSSYWYFDVWGQGSLVTVSS
VL: DIQLTQSPSSLSASVGDRVSITCKASQDVSIAVAWYQQKPGKAPKLLIYSASYRYTGVPDRFSGSGSGTDFTLTISSLQPEDFAVYYCQQHYITPLTFGAGTKVEIKR
modifications: Linker-Payload 1 joined by Sortase A ligation at the C-terminal GALPETGG tag of the light chain (resulting sequence LPXTGn with n = 3, then linker-payload); DAR value 3.5
B2: Ab2 (antibody, human IgG1, kappa, V domains shown)
VH: B1 VH
VL: B1 VL
B3: ADC-7 (antibody, human IgG1, kappa, V domains shown)
VH: B1 VH
VL: B1 VL
modifications: Linker-Payload 3 joined by Sortase A ligation at the C-terminal GALPETGG tag of the light chain; DAR value 3.6
B4: ADC-6 (antibody, human IgG1, kappa, V domains shown)
VH: B1 VH
VL: B1 VL
modifications: Linker-Payload 2 joined by Sortase A ligation at the C-terminal GALPETGG tag of the light chain; DAR value 3.6

Columns and labels:
[1] = first-phase clinical trial; cited from earlier work
[2] = biological target: T1, TROP2 (human, UniProt P09758 27-323); experiment: cell-based or functional assay
T1 sequence (looked up): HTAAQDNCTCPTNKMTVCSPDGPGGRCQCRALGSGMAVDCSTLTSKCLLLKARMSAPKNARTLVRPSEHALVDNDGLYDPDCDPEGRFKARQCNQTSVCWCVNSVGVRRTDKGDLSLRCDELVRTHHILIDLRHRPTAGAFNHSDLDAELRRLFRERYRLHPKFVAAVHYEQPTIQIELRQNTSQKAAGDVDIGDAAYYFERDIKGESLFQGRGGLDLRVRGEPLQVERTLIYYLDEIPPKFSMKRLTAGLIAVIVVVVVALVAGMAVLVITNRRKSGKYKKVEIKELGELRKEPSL

[3] = biological target: T1, TROP2; experiment: cell-based or functional assay; remark: listed apart in the source

Row | Molecule | patients with adverse events above Grade 3 [1] [%] | patients with interstitial lung disease [1] [%] | IC50, inhibition of proliferation of TROP2-positive BxPC-3 cells (CellTiterGlo, 120 h) [2] [nM] | Endocytosis by TROP2-positive tumor cells: Half Life [3] [min] | Endocytosis by TROP2-positive tumor cells: Maximum endocytosis (MFI) [3] [MFI] | Endocytosis by TROP2-positive tumor cells: Maximum endocytosis rate (%) [3] [%]
1 | DS1062 | 48 | 8 |  |  |  | 
2 | B1 |  |  | 0.249 | 45.6 | 18600 | 46
3 | B2 |  |  |  | 48.2 | 18500 | 46
4 | B3 |  |  | 0.602 |  |  | 
5 | B4 |  |  | 0.254 | 42.8 | 18200 | 45
